Data taken from patent US20100120118A1.

Tested on: purified MrpC

Substance: N-terminal histidine-tagged MazF-mx (H-MazF)
- gel-shift assay of MrpC on the mazF-mx promoter (PmazF) after preincubation with H-MazF: Binding of MrpC to the promoter region was found to be inhibited when MrpC was preincubated with MazF-mx
